Data on 1 substance can be found in patent EP0607332B1.

The target of this test is CD2 (human) (UniProt P06729). Description: cell-based or functional assay.
Sequence of UniProt P06729 (P06729 25-351 limits assumed, form in doubt): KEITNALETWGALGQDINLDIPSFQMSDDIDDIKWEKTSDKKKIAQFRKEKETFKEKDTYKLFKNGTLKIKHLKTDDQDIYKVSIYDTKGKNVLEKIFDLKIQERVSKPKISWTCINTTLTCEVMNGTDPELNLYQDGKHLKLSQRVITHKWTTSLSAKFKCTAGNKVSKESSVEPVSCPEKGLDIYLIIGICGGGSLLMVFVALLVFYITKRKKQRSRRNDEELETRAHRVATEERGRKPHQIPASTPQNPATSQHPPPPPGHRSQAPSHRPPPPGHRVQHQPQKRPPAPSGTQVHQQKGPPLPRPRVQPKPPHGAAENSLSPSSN

anti-CD2 monoclonal antibody TS2/18 yielded an inhibition of allogeneic T cell activation by normal skin epidermal cells, 50 ug per ml antibody of 40% and an inhibition of autologous T cell proliferation ([3H]TdR incorporation) in response to lesional psoriatic epidermis, 50 ug/ml antibody, against isotype-matched control of 60%.
